The values that follow come from IntAct's records for PubMed 24855949.

In test [1] the target is cdn2a_human CDKN2A (UniProt P42771).
Test [2] addresses T1, iaspp_human PPP1R13L (UniProt Q8WUF5).
T1 sequence: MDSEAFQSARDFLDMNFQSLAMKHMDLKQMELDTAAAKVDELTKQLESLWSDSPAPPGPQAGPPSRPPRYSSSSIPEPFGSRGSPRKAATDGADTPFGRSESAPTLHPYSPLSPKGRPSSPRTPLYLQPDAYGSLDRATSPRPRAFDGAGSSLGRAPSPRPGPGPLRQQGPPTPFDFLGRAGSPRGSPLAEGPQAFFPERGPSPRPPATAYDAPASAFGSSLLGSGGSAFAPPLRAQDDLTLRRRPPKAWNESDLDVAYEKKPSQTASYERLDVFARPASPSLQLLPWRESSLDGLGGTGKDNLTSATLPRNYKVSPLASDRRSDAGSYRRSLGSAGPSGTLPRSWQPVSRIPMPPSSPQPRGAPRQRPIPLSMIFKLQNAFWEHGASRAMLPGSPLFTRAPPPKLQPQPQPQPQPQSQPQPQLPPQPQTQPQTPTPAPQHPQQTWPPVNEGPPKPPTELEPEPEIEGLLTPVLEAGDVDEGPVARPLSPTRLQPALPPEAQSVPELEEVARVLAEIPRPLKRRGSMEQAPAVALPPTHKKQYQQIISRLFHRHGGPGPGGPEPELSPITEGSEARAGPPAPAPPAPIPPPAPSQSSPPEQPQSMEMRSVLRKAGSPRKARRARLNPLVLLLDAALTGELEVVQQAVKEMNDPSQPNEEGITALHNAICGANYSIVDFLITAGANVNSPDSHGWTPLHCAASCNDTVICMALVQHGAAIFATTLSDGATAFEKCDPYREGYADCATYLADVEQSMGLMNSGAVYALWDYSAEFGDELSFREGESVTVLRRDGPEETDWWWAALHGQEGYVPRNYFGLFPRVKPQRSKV

The target of test [3] is ikba_chick NFKBIA (UniProt Q91974).
The target of test [4] is T1, iaspp_human PPP1R13L. This is another data set of the same source.

ikba_chick NFKBIA, sequence (Q91974 whole entry): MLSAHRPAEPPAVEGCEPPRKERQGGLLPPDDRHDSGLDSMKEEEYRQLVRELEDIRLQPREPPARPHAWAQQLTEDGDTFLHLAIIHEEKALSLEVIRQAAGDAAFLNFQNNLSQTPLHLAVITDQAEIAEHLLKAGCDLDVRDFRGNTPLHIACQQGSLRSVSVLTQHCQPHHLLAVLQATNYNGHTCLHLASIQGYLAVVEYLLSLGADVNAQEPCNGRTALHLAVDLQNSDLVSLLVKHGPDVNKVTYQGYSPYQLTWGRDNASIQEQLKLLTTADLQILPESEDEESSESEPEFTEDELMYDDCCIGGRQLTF

As to “GTP-binding nuclear protein Ran (Homo sapiens) (from UniProt P62826) Q69L”, the “effect of a mutation on the interaction” value in test [1] and in test [2] was “disrupting interaction strength” throughout. Take “GTP-binding nuclear protein Ran (Homo sapiens) (from UniProt P62826) V187R;V188R”: the “effect of a mutation on the interaction” value in test [3] and in test [4] was “decreasing interaction strength” each time.

With “GTP-binding nuclear protein Ran (Homo sapiens) (from UniProt P62826) V188R”, the “effect of a mutation on the interaction” value in test [3] was “decreasing interaction strength”.
